This note sets out measurements from paper PMC8008698.

The target of this assay is SARS 2-Helix (single-chain fusion core of SARS-CoV spike protein: HR1, 22-amino acid linker, HR2) (SARS coronavirus GZ02). Put plainly: crystal structure.

On to “SARS 2-Helix (single-chain fusion core of SARS-CoV spike protein: HR1, 22-amino acid linker, HR2) (domain or fragment)”, for which the stoichiometry N – broadly, the number of molecules, sites or subunits per partner or assembly – came to 3.
